From article PMC6092318, “Keap1–MCM3 interaction is a potential coordinator of molecular machineries of antioxidant response and genomic DNA replication in metazoa” (Scientific Reports, 2018) come the findings set out here.

B1: FLAG-MCM3 (mouse, wild type, baculovirus) (natural protein, UniProt P25206 1-812, looked up)
chain: MAGTVVLDDVELREAQRDYLDFLDDEEDQGIYQNKVRELISDNQYRLIVSVNDLRRKNEKRANRLLNNAFEELVAFQRALKDFVASIDATYAKQYEEFYIGLEGSFGSKHVSPRTLTSCFLSCVVCVEGIVTKCSLVRPKVVRSVHYCPATKKTIERRYSDLTTLVAFPSSSVYPTKDEENNPLETEYGLSVYKDHQTITIQEMPEKAPAGQLPRSVDVILDDDLVDKVKPGDRIQVVGTYRCLPGKKGCYTSGTFRTVLIACNVKQMSKDIQPAFSADDIAKIKKFSKTRSKDVFEQLARSLAPSIHGHDYVKKAILCLLLGGVERELENGSHIRGDINILLIGDPSVAKSQLLRYVLCTAPRAIPTTGRGSSGVGLTAAVTTDQETGERRLEAGAMVLADRGVVCIDEFDKMSDMDRTAIHEVMEQGRVTIAKAGIHARLNARCSVLAAANPVYGRYDQYKTPMENIGLQDSLLSRFDLLFIMLDQMDPEQDREISDHVLRMHQYRAPGEQDGDALPLGSSVDILATDDPDFTQDDQQDTRIYEKHDSLLHGTKKKKEKMVSAAFMKKYIHVAKIIKPTLTQESAAYIAEEYSRLRSQDSMSSDTARTSPVTARTLETLIRLATAHAKARMSKTVDLQDAEEAVELVQYAYFKKVLEKEKKRKKASEDESDLEDEEEKSQEDTEQKRKRRKTHAKDGESYDPYDFSEAETQMPQVHTPKTDDSQEKTDDSQETQDSQKVELSEPRLKAFKAALLEVFQEAHEQSVGMLHLTESINRNREEPFSSEEIQACLSRMQDDNQVMVSEGIVFLI
notes: MCM3, mouse; cDNA cloned into pFastBac1; also called WT MCM3; source: Sf9, baculovirus infected, in extract; not shown: FLAG, N-terminal, kept
B2: HA-MCM-BP (mouse, baculovirus) (natural protein, UniProt Q8R3C0 1-642, looked up)
chain: MPCGEDWLSHPLGIVQGFFAQNGVNPDWEKKVIEYFKEKLKENNAPKWVPSLNEVPLHYLKPNSFVKFRCMIQDMFDPEFYMGIYETVNQNTKARVLHFGKYRDVAECGPQQELDLSSPRSTTSERQTFYCVPVPGESSWVKEAYVNANQARVSPSTSYTPSRHKRSYEDDEDMDLQPSKQKEQHPGSRQAGGLGGLHWCGEPKRLETEASSGQQLNTLNLSSPFDLNFPLPGEKGPACLVKVYEDWDCFKVNDVLELYGVLSVDPVLSVLNSEERDASALLDPMECTDMAEEQRVHSPPASLVPRIHVILAQKLQHINPLLPTCLNKEESRSCQFVSNFMSELSPVRAELLGFLTHALLGDSLAAEYLILHLISTVYTRRDVLPLGKFTVNLSGCPQNSTFTEHLYRIIQHLVPASFRLQMTIENMNQLKLIPHKDYTANRLVSGLLQLPNNTSLVIDETLLEQGQLDTPGVHNVTALSNLITWQKVDYDFSYHQMEFPCNINVLITSEGRSLLPADCQIHLQPQLIPPNMEEYMNGLLSAVLPSVLNKFRIYLTLLRFLDYNLSDDITKAVEDDFVEMRKDDPQSITADDLHQLLVVARFLSLSVGQTTLSRERWLRAKQLELSRKARLQQQKSVNGNEL
notes: MCM-BP, mouse; cDNA cloned into pFastBac1; source: Sf9, baculovirus infected, in extract

Assay [1] has as its target FLAG-MCM3 (mouse MCM3 expressed in CHO-EBNALT85 cells) (mouse) (UniProt P25206). Kind of assay: co-IP; anti-FLAG M2 beads on whole cell, nuclear and cytoplasmic extracts of FLAG-MCM3 expressing CHOEBNALT85 cells, 150 mM KCl, Western blot. A general note: Immunoblotting shows a protein as a band on a membrane.
The target of assay [2] is T1, strep-Keap1 (mouse, wild type, baculovirus) (mouse, UniProt Q9Z2X8 1-624).
T1 construct: Keap1, mouse; cDNA cloned into pFastBac1; also called strep tagged Keap1; strp-Keap1; source: Sf9, baculovirus infected, in extract; not shown: Strep-tag II, N-terminal, kept
T1 sequence (Q9Z2X8 whole entry): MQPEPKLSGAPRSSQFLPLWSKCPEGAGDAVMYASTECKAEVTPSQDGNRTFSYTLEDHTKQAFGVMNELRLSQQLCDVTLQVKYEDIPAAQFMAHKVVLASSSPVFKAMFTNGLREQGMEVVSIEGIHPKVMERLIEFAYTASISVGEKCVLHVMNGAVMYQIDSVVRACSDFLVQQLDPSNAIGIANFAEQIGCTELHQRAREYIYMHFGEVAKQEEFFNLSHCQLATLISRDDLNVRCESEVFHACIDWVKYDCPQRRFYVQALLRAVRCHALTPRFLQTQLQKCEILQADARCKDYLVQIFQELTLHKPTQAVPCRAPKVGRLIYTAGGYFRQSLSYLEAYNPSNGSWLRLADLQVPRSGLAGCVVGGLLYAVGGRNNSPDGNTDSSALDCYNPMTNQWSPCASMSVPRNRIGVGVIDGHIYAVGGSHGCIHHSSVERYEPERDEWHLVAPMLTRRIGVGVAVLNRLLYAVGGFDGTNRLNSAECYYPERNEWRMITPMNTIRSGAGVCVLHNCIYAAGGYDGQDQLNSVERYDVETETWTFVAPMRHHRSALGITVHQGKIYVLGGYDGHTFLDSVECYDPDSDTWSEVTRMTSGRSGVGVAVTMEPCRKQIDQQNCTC
In words: SEC; Superose 6 10/300 GL of the strep-Keap1 - FLAG-MCM3 tandem purified complex, 100 mM KCl buffer; densitometry of the Coomassie stained gel. To be noted: partners not purified. On the technique in general: In gel filtration, larger molecules generally elute earlier.

The target in assay [3] is B1. Described as above. The settings on record: partners not purified.

In assay [1], “Keap1 (endogenous, CHO cells) (natural protein)” registered a percent of soluble MCM3 and Keap1 pulled down together of 5 to 10%.

With B1, the “stoichiometry N” value in assay [2] is around 1.

As to B2, the “stoichiometry N” value in assay [3] is around 1.

What is called stoichiometry N is a count of units in the complex or per binding partner.
